In PMC12564070, “Rapid and Quantitative Detection of TNF-α in Human Tears Using a Portable Electrochemiluminescence-Based Device”:

Experiments:
[1] = target: TNF-alpha (Homo sapiens, UniProt P01375 77-233); test: electrochemiluminescence aptasensor (Apt-VSM/ITO electrode); linear 0.1-200 pg/mL, LOD 0.089 pg/mL; Ru luminophore/TPrA; Aptamer immobilized on VSM/ITO electrode, 0.5% BSA block, 0.1 M PBS rinse; binding buffer, pH and temperature not given in the material; conditions: protein: commercial; chain copies: 3
TNF-alpha, sequence (P01375 77-233): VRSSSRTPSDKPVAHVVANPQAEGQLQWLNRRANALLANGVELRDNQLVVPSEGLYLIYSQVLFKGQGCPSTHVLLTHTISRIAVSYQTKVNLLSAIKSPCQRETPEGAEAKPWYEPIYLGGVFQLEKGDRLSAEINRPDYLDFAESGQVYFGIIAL

[2] = target: IL-6 (UniProt P05231 30-212); test: electrochemiluminescence aptasensor (Apt-VSM/ITO electrode); 1 ng/mL IL-6, interference test; negligible ECL variation; Aptamer immobilized on VSM/ITO electrode, 0.5% BSA block, 0.1 M PBS rinse; binding buffer, pH and temperature not given in the material
IL-6, sequence (P05231 30-212): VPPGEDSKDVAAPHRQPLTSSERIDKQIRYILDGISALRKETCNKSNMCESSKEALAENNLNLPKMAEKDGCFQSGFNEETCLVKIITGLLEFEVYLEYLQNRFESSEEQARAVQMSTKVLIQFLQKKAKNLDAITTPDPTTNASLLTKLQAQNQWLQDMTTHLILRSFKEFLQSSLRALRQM

B1: TNF-alpha aptamer (ssDNA)
DNA: GCGCCACTACAGGGGAGCTGCCATTCGAATAGGTGGGCCGC
modifications: amino-modified (end not stated), coupled to GPTMS epoxy groups on VSM/ITO electrode
B1: binds [1]; no binding [2].
